Article PMC7193897

How the values were obtained:
purified protein [1] = substrate: CCCC(=O)N[C@H]1CCOC1=O; assay: purified protein; conditions: pH 8.3
purified protein [2] = substrate: CCCCCCCCCC(=O)CC(=O)N[C@H]1CCOC1=O; assay: purified protein; conditions: pH 8.3

B1: GcL (Parageobacillus caldoxylosilyticus NBRC 107762) (protein)
chain: MANVIKARPKLYVMDNGRMRMDKNWMIAMHNPATIHNPNAQTEFVEFPIYTVLIDHPEGKILFDTSCNPNSMGPQGRWAESTQQMFPWTATEECYLHNRLEQLKVRPEDIRYVVASHLHLDHAGCLEMFTNATIIVHEDEFNGALQCYARNQKEGAYIWADIDAWIKNNLQWRTVKRHEDNILLAEGVKVLNFGSGHAWGMLGLHVELPETGGIILASDAIYTAESYGPPIKPPGIIYDSLGYMNTVERIRRIAQETKSQVWFGHDAEQFKKFRKSTEGYYE
- Km (purified protein [1]): (9.8 ± 0.7) × 10^2 μM
- kcat/Km (purified protein [1]): 43000 M⁻¹ s⁻¹
- Km (purified protein [2]): 97 ± 9 µM
